Reference: paper PMC2748081 (Reproductive Biology and Endocrinology : RB&E, 2009)

B1: moesin, recombinant (natural protein, mouse, UniProt P26041 1-577, looked up)
chain: MPKTISVRVTTMDAELEFAIQPNTTGKQLFDQVVKTIGLREVWFFGLQYQDTKAFSTWLKLNKKVTAQDVRKESPLLFKFRAKFYPEDVSEELIQDITQRLFFLQVKEGILNDDIYCPPETAVLLASYAVQSKYGDFNKEVHKSGYLAGDKLLPQRVLEQHKLNKDQWEERIQVWHEEHRGMLREDAVLEYLKIAQDLEMYGVNYFSIKNKKGSELWLGVDALGLNIYEQNDRLTPKIGFPWSEIRNISFNDKKFVIKPIDKKAPDFVFYAPRLRINKRILALCMGNHELYMRRRKPDTIEVQQMKAQAREEKHQKQMERALLENEKKKRELAEKEKEKIEREKEELMEKLKQIEEQTKKAQQELEEQTRRALELEQERKRAQSEAEKLAKERQEAEEAKEALLQASRDQKKTQEQLASEMAELTARISQLEMARKKKESEAVEWQQKAQMVQEDLEKTRAELKTAMSTPHVAEPAENEHDEQDENGAEASAELRADAMAKDRSEEERTTEAEKNERVQKHLKALTSELANARDESKKTANDMIHAENMRLGRDKYKTLRQIRQGNTKQRIDEFESM
notes: moesin, cDNA by RT-PCR from total RNA of mouse TG cells as the methods say; primers from the start codon (MPKTISVR) to the stop codon (IDEFESM); also called ERM protein; source: E. coli DH5α, pCold TF vector, purified (Ni-NTA), tag cleaved with human rhinovirus 3C protease
B2: ezrin, recombinant (natural protein, mouse, UniProt P26040 1-586, looked up)
chain: MPKPINVRVTTMDAELEFAIQPNTTGKQLFDQVVKTIGLREVWYFGLQYVDNKGFPTWLKLDKKVSAQEVRKENPVQFKFRAKFYPEDVAEELIQDITQKLFFLQVKDGILSDEIYCPPETAVLLGSYAVQAKFGDYNKEMHKSGYLSSERLIPQRVMDQHKLSRDQWEDRIQVWHAEHRGMLKDSAMLEYLKIAQDLEMYGINYFEIKNKKGTDLWLGVDALGLNIYEKDDKLTPKIGFPWSEIRNISFNDKKFVIKPIDKKAPDFVFYAPRLRINKRILQLCMGNHELYMRRRKPDTIEVQQMKAQAREEKHQKQLERQQLETEKKRRETVEREKEQMLREKEELMLRLQDYEQKTKRAEKELSEQIEKALQLEEERRRAQEEAERLEADRMAALRAKEELERQAQDQIKSQEQLAAELAEYTAKIALLEEARRRKEDEVEEWQHRAKEAQDDLVKTKEELHLVMTAPPPPPPPVYEPVNYHVQEGLQDEGAEPMGYSAELSSEGILDDRNEEKRITEAEKNERVQRQLLTLSNELSQARDENKRTHNDIIHNENMRQGRDKYKTLRQIRQGNTKQRIDEFEAM
notes: ezrin, cDNA by RT-PCR from total RNA of mouse TG cells; primers from the start codon (MPKPINVR) to the stop codon (IDEFEAM); also called ERM protein; source: E. coli DH5α, pCold TF vector, purified (Ni-NTA), tag cleaved with human rhinovirus 3C protease
B3: radixin, recombinant (natural protein, mouse, UniProt P26043 1-583, looked up)
chain: MPKPINVRVTTMDAELEFAIQPNTTGKQLFDQVVKTVGLREVWFFGLQYVDSKGYSTWLKLNKKVTQQDVKKENPLQFKFRAKFFPEDVSEELIQEITQRLFFLQVKEAILNDEIYCPPETAVLLASYAVQAKYGDYNKEIHKPGYLANDRLLPQRVLEQHKLTKEQWEERIQNWHEEHRGMLREDSMMEYLKIAQDLEMYGVNYFEIKNKKGTELWLGVDALGLNIYEHDDKLTPKIGFPWSEIRNISFNDKKFVIKPIDKKAPDFVFYAPRLRINKRILALCMGNHELYMRRRKPDTIEVQQMKAQAREEKHQKQLERAQLENEKKKREIAEKEKERIEREKEELMERLRQIEEQTVKAQKELEEQTRKALELEQERQRAKEEAERLDRERRAAEEAKSAIAKQAADQMKNQEQLAAELAEFTAKIALLEEAKKKKEEEATEWQHKAFAAQEDLEKTKEELKTVMSAPPPPPPPPVIPPTENEHDEQDENSAEASAELSSEGVMNHRSEEERVTETQKNERVKKQLQALSSELAQARDETKKTQNDVLHAENVKAGRDKYKTLRQIRQGNTKQRIDEFEAM
notes: radixin, cDNA by RT-PCR from total RNA of mouse TG cells; primers from the start codon (MPKPINVR) to the stop codon (IDEFEAM); also called ERM protein

These binders were tested against T1, heat shock cognate protein 70 (Hsc70), recombinant, full length (mouse, UniProt P63017 1-646) (assay: pull-down; purified recombinant Hsc70 and each ERM protein (20 μg/ml) mixed in PBS, 37°C 2 h, precipitated with anti-Hsc70 antibody on protein G agarose beads or beads only; detection by immunoblotting). Conditions: both partners purified.
T1 construct: Hsc70 (heat shock cognate protein 70), cDNA by RT-PCR from total RNA of mouse TG cells; primers 'Hsc70 full length' from the start codon (MSKGPAV) to the stop codon (TIEEVD); some vector residues may remain; also called Full Hsc70; recombinant Hsc70; source: E. coli DH5α, pCold TF vector, purified (Ni-NTA), tag cleaved with human rhinovirus 3C protease
T1 sequence (P63017 whole entry): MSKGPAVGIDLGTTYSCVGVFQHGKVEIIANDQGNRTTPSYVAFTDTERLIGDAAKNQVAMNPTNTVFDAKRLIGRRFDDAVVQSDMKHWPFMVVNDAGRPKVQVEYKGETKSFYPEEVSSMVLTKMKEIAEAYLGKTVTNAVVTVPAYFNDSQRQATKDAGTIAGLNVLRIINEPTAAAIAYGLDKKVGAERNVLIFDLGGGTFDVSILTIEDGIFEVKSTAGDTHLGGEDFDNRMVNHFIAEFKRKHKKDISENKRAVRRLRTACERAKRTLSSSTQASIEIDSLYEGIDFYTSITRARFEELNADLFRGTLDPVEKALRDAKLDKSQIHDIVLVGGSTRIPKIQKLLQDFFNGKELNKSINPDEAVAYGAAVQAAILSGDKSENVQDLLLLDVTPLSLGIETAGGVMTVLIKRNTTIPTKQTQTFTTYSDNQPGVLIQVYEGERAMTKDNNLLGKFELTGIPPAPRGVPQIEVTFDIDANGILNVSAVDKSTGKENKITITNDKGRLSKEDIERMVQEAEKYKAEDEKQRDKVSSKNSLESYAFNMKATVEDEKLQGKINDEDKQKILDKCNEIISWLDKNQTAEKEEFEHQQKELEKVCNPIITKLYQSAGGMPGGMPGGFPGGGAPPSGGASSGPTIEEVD

Binder	binding result
B1	binds
B2	binds
B3	binds
